In US20220112288A1 (published 2022):
Changes are numbered by the printed parent chain. Values belong to the binder of their own block, whether it stands above or below them.

Assays:
[1] = biological target: T1, human CD4 on cells (SKW3 cells; human PBMCs) (human, UniProt P01730 26-458); assay: FACS confirmation, supernatant on SKW3 cells; background gMFI 2500
T1 construct: whole, on cells; SKW3 CD4 knockout cells served as the negative cell line in the primary screen; also called hCD4; huCD4

[2] = biological target: T1, human CD4 on cells (SKW3 cells; human …); assay: FACS confirmation, supernatant on human PBMCs;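 note: flow cytometry with hybridoma supernatants incubated on human PBMCs for 30 min at 4 °C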
[3] = biological target: T1, human CD4 on cells (SKW3 cells; human …); assay: FACS confirmation, supernatant on SKW3 cells; background gMFI 3300
[4] = biological target: T1, human CD4 on cells (SKW3 cells; human …); assay: FACS primary screen, hybridoma supernatant, SKW3 vs SKW3 CD4 KO cells;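 note: flow cytometry on mixed SKW3 and dye-labeled SKW3 CD4 knockout cells after 30 min at 4 °C with supernatant, ratio of binding signal on parental versus knockout cells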
[5] = biological target: T2, human CD8 on human pan T cells (CD4-negative population) (human, UniProt P01732 22-235; P10966 22-210); assay: flow cytometry, 20 nM antibody on human pan T cells, A647 anti-human IgG Fc; geomean ratio in CD4-negative population
T2 construct: whole, on cells; Endogenous CD8 on primary human pan T cells, read in the CD4-negative gate; also called CD8α/β
T2 sequence (P01732 22-235, chain 1 of 2): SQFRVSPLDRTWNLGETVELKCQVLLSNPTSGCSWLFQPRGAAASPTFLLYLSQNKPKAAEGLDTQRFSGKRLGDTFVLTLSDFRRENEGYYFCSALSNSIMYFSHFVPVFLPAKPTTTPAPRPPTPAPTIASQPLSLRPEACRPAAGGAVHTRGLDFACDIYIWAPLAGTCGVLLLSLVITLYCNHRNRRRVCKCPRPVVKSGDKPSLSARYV
T2 sequence (P10966 22-210, chain 2 of 2): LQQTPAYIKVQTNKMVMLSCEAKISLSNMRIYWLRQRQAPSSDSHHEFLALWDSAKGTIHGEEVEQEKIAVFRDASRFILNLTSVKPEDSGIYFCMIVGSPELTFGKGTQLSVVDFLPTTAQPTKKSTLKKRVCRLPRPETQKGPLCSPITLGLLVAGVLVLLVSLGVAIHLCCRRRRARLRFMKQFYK

B1: 75110_06E14A (antibody, V domains shown)
VH: QVQLQESGPGLVKPSETLSLTCTVSGGSISNYFWSWIRQPAGKGLEWIGRIYSSGNTNYNPSLKSRVTMSVDTSKNQFSLKLSSVTAADTAVYYCARDREDYYYYGMDVWGQGTTVTVSS
VL: DIQMTQSPSSLSASVGDRVTITCQASQDISNYLNWYQQKPGKAPKLLIYGASILETGVPSRFTGSGSGTDFTFTISSLQPEDIATYYCQQYDSLPITFGQGTRLEIK
notes: Tested as non-clonal AlivaMab Mouse Kappa hybridoma supernatant (detected with anti-mouse Fc gamma and anti-human kappa)
- gMFI on SKW3 WT, anti-hu Kappa FITC [1]: 8920 gMFI
- PBMCs CD4+ gate RL1 binding, anti-mFc 647 [2]: 285000
- PBMCs CD4+ percent bound of viable [2]: 30%
- gMFI on SKW3 WT, anti-mFc 647 [3]: 33800 gMFI
- SKW3 WT vs KO ratio, anti-hKappa-FITC [4]: 3
- SKW3 WT vs KO ratio, anti-mFc-647 [4]: 9.8

B2: 75110_14I16A (antibody, V domains shown)
VH: B1 VH with G26N, N31S, F33Y, P40S, S53T, N56S, S70L
VL: DIQMTQSPSSLSASVGDRVTITCQASHDISNYLNWYQQKPGKAPKLLLYYASNLETGVPSRFSGSGSGTDFTFTITSLQPEDIGTYSCQQYDNLPLTFGGGTKVEIK
notes: Tested as non-clonal AlivaMab Mouse Kappa hybridoma supernatant (detected with anti-mouse Fc gamma and anti-human kappa); also called 75110_14116A
- gMFI on SKW3 WT, anti-hu Kappa FITC [1]: 3550 gMFI
- PBMCs CD4+ gate RL1 binding, anti-mFc 647 [2]: 196000
- PBMCs CD4+ percent bound of viable [2]: 23%
- gMFI on SKW3 WT, anti-mFc 647 [3]: 6820 gMFI
- SKW3 WT vs KO ratio, anti-hKappa-FITC [4]: 1.4
- SKW3 WT vs KO ratio, anti-mFc-647 [4]: 2.1

B3: 75110_08M20A (antibody, V domains shown)
VH: B1 VH with G8D, N31S, F33Y, S53A, N56S, D101G
VL: B1 VL with N31K, K45N, G50A, I53N, T63S, T85A
notes: as for B1
- gMFI on SKW3 WT, anti-hu Kappa FITC [1]: 7790 gMFI
- PBMCs CD4+ gate RL1 binding, anti-mFc 647 [2]: 319000
- PBMCs CD4+ percent bound of viable [2]: 30%
- gMFI on SKW3 WT, anti-mFc 647 [3]: 30700 gMFI
- SKW3 WT vs KO ratio, anti-hKappa-FITC [4]: 2.7
- SKW3 WT vs KO ratio, anti-mFc-647 [4]: 8.8

B4: CD8B182 (antibody, human IgG1, kappa, V domains shown)
VH: EVQLQQSGAALAKPGTSVKMSCKASGYTFTSYWMNWVRQRPGQGLEWIGAVNPTNYYTEYIQKFKDKAILTADKSSSTAYMHLSGLTSEDSAVYYCARSGLYNTNHLAWFAYWGQGTTVTVSS
VL: DIKMTQSPASLSASVGETVTITCRASENIHNYLAWYQQIQGKSPQLLVYNAKTLANGVPSRFSGSASGTQFSLTINSLQPEDFGSYYCQHFWTTPLTFGAGTKLELKR
notes: Full-length human IgG1, kappa; V regions recovered from mouse hybridoma
- Cell Binding to Human PanT Signal/Background (of CD4 negative population) [5]: 1490

B7: CD8B269 (antibody, human IgG1, kappa, V domains shown)
VH: DVQLQESGPGLVKPSQSLSLTCSVTGYSITSGYYWNWIRQFPGNKLEWMGYISYDGSNNYNPSLKNRISITRDTSKNQFFLKLNSVTTEDTATYYCVRNHGDAMDHWGQGTTLTVSS
VL: DIVMTQSQKFMSTSVGDRVRVTCKASQNVGTDVAWYQQKPGQSPKALIYSASYRYSGVPDRFTGSGSGTDFTLTISDVQSEDLAEYFCQQYKSYPLTFGAGTKLELKR
notes: as for B4
- Cell Binding to Human PanT Signal/Background (of CD4 negative population) [5]: 26

B8: CD8B268 (antibody, human IgG1, kappa, V domains shown)
VH: QVQLQQSGAELVKPGASVKLSCKASGYTFTVYTIHWVKQRSGQGLEWIGWFYPGSGNIKYNEKFKDKATLTADKSSHTVYMELSRLTSEDSAVYFCARHEDNHYYDGNSWFAYWGQGTLVTVSA
VL: DIQMTQSPASLSASVGQTVTITCRASGNIHNYLAWFQQKQGKSPQLLVYNAKTLADGVPSRFSGSGSGTQYSLKINSLQTEDFGNYYCQHFWNTPYTFGGGTKLEIKR
notes: as for B4
- Cell Binding to Human PanT Signal/Background (of CD4 negative population) [5]: 1170

B13: CD8B251 (antibody, human IgG1, kappa, V domains shown)
VH: QVQLKGSGPGLVQPSQSLSITCTVSGFSLTTYAVHWVRQSPGKGLEWLGVIWSGGSTDYNAAFISRLSISKDNSKSQVFFKMNSLQADDTAIYYCARHSYYHYNAMDNWGQGTSVTVSS
VL: DIKMTQSQKFMSTTVGDRVSITCKASQNVGTAVAWYQQKPGQSPKLLIYSASNRYTGVPDRFTGSGSGTDFTLTISNMQSEDLADYFCQQYSSYPFTFGSGTKLEIKR
notes: as for B4
- Cell Binding to Human PanT Signal/Background (of CD4 negative population) [5]: 37

B15: CD8B271 (antibody, human IgG1, kappa, V domains shown)
VH: DVQLQESGPGLVAPSQSLSITCTVSGFSLSIYSIHWVRQPPGKGLEWLGMIWGGGDTDYNSALKSRLSISKDNSESQVFLKMNSLQTDDTAMYYCARNPHYYGGTYEYFDVWGTGTTVTVSS
VL: DIQMTQTTSSLSASLGDRVTISCSASQGISNYLNWYQQKPDGTVKLLIYDTSILYSGVPSRFSGSGSGTDYSLTISNLEPEDVATYYCQQYSNLPYTFGSGTKLEIKR
notes: as for B4
- Cell Binding to Human PanT Signal/Background (of CD4 negative population) [5]: 911

The remaining lines, values ahead:

- Cell Binding to Human PanT Signal/Background (of CD4 negative population) [5]: 777
B5: CD8B356 (antibody, human IgG1, kappa, V domains shown)
VH: B7 VH with H106Y, T112S, L113V
VL: DIVLTQSQKFMSTTVGDRVSITCKASQNVGTAVAWYQQKPGQSPKLLIYSASYRYTGVPDRFTGSGSGTHFTLTISNMQSEDLADYFCQQYSSYLTFGSGTKLEIKR
notes: as for B4

- Cell Binding to Human PanT Signal/Background (of CD4 negative population) [5]: 16
B6: CD8B319 (antibody, human IgG1, kappa, V domains shown)
VH: QVQLKESGPELKKPGETVKISCKASGYSFTAYYMHWVKQSPEKSLEWIGEINPSAGGTTYNQKFKAKATLTVDKSSSTAFIQLKSLTSEDSAVYYCARWTNPFDYWGQGTTLTVSS
VL: B5 VL with L4M, M78I, S92N, S93N
notes: as for B4

- Cell Binding to Human PanT Signal/Background (of CD4 negative population) [5]: 537
B9: CD8B350 (antibody, human IgG1, kappa, V domains shown)
VH: EVQLQQSGAELAKPGTSVKMSCKASGYTFAAYWINWLKQRPGQGLEWIGSINPSNGYTEYSQKFKDKAILTADKSSSTAYMQLSSLTSEDSAVYYCSRSGLYYTNHLAWCPYWGQGTTVTVSS
VL: B8 VL with Q3V, Q17E, F36Y, L46V, K52E, G57S, Y71F, T80P, T94S, Y96L
notes: as for B4

- Cell Binding to Human PanT Signal/Background (of CD4 negative population) [5]: 938
B10: CD8B273 (antibody, human IgG1, kappa, V domains shown)
VH: B8 VH with V31E, S55T, N57S, R85K
VL: B8 VL with Q17E, T80A, N85S, N93S, G100S
notes: as for B4

- Cell Binding to Human PanT Signal/Background (of CD4 negative population) [5]: 29
B11: CD8B310 (antibody, human IgG1, kappa, V domains shown)
VH: QVQLKESGPGLVAPSQSLSITCTVSGFSLTNYAVHWVRQSPGKGLEWLGVIWTDGSTDYNAGFISRLSISKDNSKSQVFFKMNSLQADDTAIYYCARNNGYFPAFFAYWGQGTTVTVSS
VL: DVLMTQTPLSLPVSLGDQASISCRSSQTIVHSNGNTYLEWYLQKPGQSPKLLMYKVSNRFSGVPDRFGGSGSGTDFTLKISRVEAEDLGVYYCFQGSHAPFTFGSGTKLEIKR
notes: as for B4

- Cell Binding to Human PanT Signal/Background (of CD4 negative population) [5]: 1180
B12: CD8B303 (antibody, human IgG1, kappa, V domains shown)
VH: QVQLKESGPGLVAPSQSLSITCTVSGFSLSIYSIHWVRQPPGKGLEWLGMIWGGGSTDYNSTLNSRLSIIKDNSKSQVFLKMNSLQTDDTAMYYCARNPHHYGGSTGAMDYWGQGTTVTVSS
VL: DVQMIQSPSSLSASLGGTVTITCKASQDIKKYMAWYQHKPGKGPRLLIHYTSSLQPGIPSRFSGSGSGRDYYFSISNLEPEDIATYFCLQYDNLFTFGSGTKLELKR
notes: as for B4

- Cell Binding to Human PanT Signal/Background (of CD4 negative population) [5]: 1090
B14: CD8B312 (antibody, human IgG1, kappa, V domains shown)
VH: QVQLQQPGADLVKPGASVKLSCKASGYTFTSFWMHWVKQRPGQGLEWIGNVDPSDSQTHYNQKFKDKATLTVDKSSNTAYMQLSSLTSEDSAVYYCARSTYYRYDGPFTYWGQGTTVTVSS
VL: DIVLTQSPATLSVTPGDSVSLSCRASQSINNNLHWYQQKSHESPRLLIKYTSQSISGIPSRFSGSGSGPDFTLSINSVETEDFGMYFCQQSNSWPLTFGGGTKLEIKR
notes: as for B4

- Cell Binding to Human PanT Signal/Background (of CD4 negative population) [5]: 1200
B16: CD8B347 (antibody, human IgG1, kappa)
heavy: not shown
light: DIQMTQSPASLSASVGETVTITCRASGNIHNYLAWYQQKQGKSPQLLVFNAETLADGVPSRFSGSGSGTQFSLKINSLQPEDFGTYYCQHFWNNPLTLGAGTKLELKRTVAAPSVFIFPPSDEQLKSGTASVVCLLNNFYPREAKVQWKVDNALQSGNSQESVTEQDSKDSTYSLSSTLTLSKADYEKHKVYACEVTHQGLSSPVTKSFNRGEC
notes: as for B4
